Results reported in publication PMC3269792.

Tests used:
[1] = biological target: KCNQ1-KCNQ1 dimer (QQ) of the tandem EQQ construct with I145C in the proximal KCNQ1 subunit (human); test: cross-linking
[2] = biological target: KCNQ1-KCNQ1 dimer (QQ) of the tandem EQQ construct with I145C in the distal KCNQ1 subunit (human); test: cross-linking

Substance “KCNE1 K41C subunit of the tandem EQQ construct, cut off by HRV-3C protease (natural protein)” has a percent cross-linking [1] of 90% and a percent cross-linking [2] of 50%.
